From article PMC11211449 come the findings set out here.

The test deals with recombinant prefusion RV3 F antigen (human respirovirus 3 fusion glycoprotein, prefusion conformation) (human respirovirus 3 (RV3)). Put plainly: cryo-EM structure.

For the substance “recombinant prefusion RV3 F antigen (human respirovirus 3 fusion glycoprotein, prefusion conformation) (natural protein)”, the stoichiometry N – broadly, the number of molecules, sites or subunits per partner or assembly – was determined as 3.
